In US20220040297A1 (Chugai, published 2022):

molecular target: CD3ε homodimer protein (human, UniProt P07766 23-126, limits assumed); assay: SPR, immobilized CD3ε homodimer;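 further: biacore T200 surface plasmon resonance at 25 °C, antibody variants flowed as analytes over amine-coupled CD3ε homodimer on a CM4 chip, variant binding amount divided by that of GLS3000 antibody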
Sequence (P07766 23-126 limits assumed): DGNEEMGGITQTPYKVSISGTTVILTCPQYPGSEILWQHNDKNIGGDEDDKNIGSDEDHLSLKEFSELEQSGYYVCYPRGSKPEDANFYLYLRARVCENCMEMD

| Binder | ratio of amounts bound (vs GLS3000) |
| --- | --- |
| GLS3000 N53K (antibody, name in Kabat numbering, V domains shown, one-arm format as m2) VH: QVQLVESGGGVVQPGRSLRLSCAASGFTFSNAWMHWVRQAPGKGLEWVAQIKAKSNNYATYYAESVKGRFTISRDDSKNSLYLQMNSLKTEDTAVYYCRYVHYGAYYGVDAWGQGTTVTVSS VL: DIVMTQSPLSLPVTPGEPASISCRSSQSLVHSNRNTYLHWYQQKPGQAPRLLIYKVSKRFSGVPDRFSGSGSGTDFTLKISRVEAEDVGVYYCGQGTQVPYTFGQGTKLEIK | 1.08 |
| GLS3000 N53M (antibody, name in Kabat numbering, V domains shown, one-arm format as m2) VH: QVQLVESGGGVVQPGRSLRLSCAASGFTFSNAWMHWVRQAPGKGLEWVAQIKAKSNNYATYYAESVKGRFTISRDDSKNSLYLQMNSLKTEDTAVYYCRYVHYGAYYGVDAWGQGTTVTVSS VL: DIVMTQSPLSLPVTPGEPASISCRSSQSLVHSNRNTYLHWYQQKPGQAPRLLIYKVSMRFSGVPDRFSGSGSGTDFTLKISRVEAEDVGVYYCGQGTQVPYTFGQGTKLEIK | 0.62 |
| GLS3000 N53Q (antibody, name in Kabat numbering, V domains shown, one-arm format as m2) VH: QVQLVESGGGVVQPGRSLRLSCAASGFTFSNAWMHWVRQAPGKGLEWVAQIKAKSNNYATYYAESVKGRFTISRDDSKNSLYLQMNSLKTEDTAVYYCRYVHYGAYYGVDAWGQGTTVTVSS VL: DIVMTQSPLSLPVTPGEPASISCRSSQSLVHSNRNTYLHWYQQKPGQAPRLLIYKVSQRFSGVPDRFSGSGSGTDFTLKISRVEAEDVGVYYCGQGTQVPYTFGQGTKLEIK | 0.77 |
| GLS3000 N53P (antibody, name in Kabat numbering, V domains shown, one-arm format as m2) VH: QVQLVESGGGVVQPGRSLRLSCAASGFTFSNAWMHWVRQAPGKGLEWVAQIKAKSNNYATYYAESVKGRFTISRDDSKNSLYLQMNSLKTEDTAVYYCRYVHYGAYYGVDAWGQGTTVTVSS VL: DIVMTQSPLSLPVTPGEPASISCRSSQSLVHSNRNTYLHWYQQKPGQAPRLLIYKVSPRFSGVPDRFSGSGSGTDFTLKISRVEAEDVGVYYCGQGTQVPYTFGQGTKLEIK | 0.81 |
| GLS3000 N53R (antibody, name in Kabat numbering, V domains shown, one-arm format as m2) VH: QVQLVESGGGVVQPGRSLRLSCAASGFTFSNAWMHWVRQAPGKGLEWVAQIKAKSNNYATYYAESVKGRFTISRDDSKNSLYLQMNSLKTEDTAVYYCRYVHYGAYYGVDAWGQGTTVTVSS VL: DIVMTQSPLSLPVTPGEPASISCRSSQSLVHSNRNTYLHWYQQKPGQAPRLLIYKVSRRFSGVPDRFSGSGSGTDFTLKISRVEAEDVGVYYCGQGTQVPYTFGQGTKLEIK | 1.58 |
| GLS3000 N53S (antibody, name in Kabat numbering, V domains shown, one-arm format as m2) VH: QVQLVESGGGVVQPGRSLRLSCAASGFTFSNAWMHWVRQAPGKGLEWVAQIKAKSNNYATYYAESVKGRFTISRDDSKNSLYLQMNSLKTEDTAVYYCRYVHYGAYYGVDAWGQGTTVTVSS VL: DIVMTQSPLSLPVTPGEPASISCRSSQSLVHSNRNTYLHWYQQKPGQAPRLLIYKVSSRFSGVPDRFSGSGSGTDFTLKISRVEAEDVGVYYCGQGTQVPYTFGQGTKLEIK | 0.69 |
| GLS3000 N53T (antibody, name in Kabat numbering, V domains shown, one-arm format as m2) VH: QVQLVESGGGVVQPGRSLRLSCAASGFTFSNAWMHWVRQAPGKGLEWVAQIKAKSNNYATYYAESVKGRFTISRDDSKNSLYLQMNSLKTEDTAVYYCRYVHYGAYYGVDAWGQGTTVTVSS VL: DIVMTQSPLSLPVTPGEPASISCRSSQSLVHSNRNTYLHWYQQKPGQAPRLLIYKVSTRFSGVPDRFSGSGSGTDFTLKISRVEAEDVGVYYCGQGTQVPYTFGQGTKLEIK | 0.56 |
| GLS3000 N53L (antibody, name in Kabat numbering, V domains shown, one-arm format as m2) VH: QVQLVESGGGVVQPGRSLRLSCAASGFTFSNAWMHWVRQAPGKGLEWVAQIKAKSNNYATYYAESVKGRFTISRDDSKNSLYLQMNSLKTEDTAVYYCRYVHYGAYYGVDAWGQGTTVTVSS VL: DIVMTQSPLSLPVTPGEPASISCRSSQSLVHSNRNTYLHWYQQKPGQAPRLLIYKVSLRFSGVPDRFSGSGSGTDFTLKISRVEAEDVGVYYCGQGTQVPYTFGQGTKLEIK | 0.56 |
